Measurements from the RNAGym collection of RNA variant scans (doi:10.1073/pnas.2313332121).
This sample holds only a part of the variants without activity.

B1: TPR 5TU (parent)
chain: GGAUCUUCUCGAUCUAACAAAAAAGACAAAUCUGCCACAAAGCUUGAGAGCAUCUUCGGAUGCAGAGGCGGCAGCCUUCGGUGGCGCGAUAGCGCCAACGUUCUCAACUAUGACACGCAAAACGCGUGCUCCGUUGAAUGGAGUUUAUCAUG

Variants of: B1
Assay: polymerase ribozyme fitness, log enrichment relative to wild type (log ratio); higher = more active; in vitro selection for triplet polymerase activity
How it was run: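 For each subunit of a heterodimeric triplet polymerase ribozyme, a mutant library was built by PCR and transcribed, then taken through a single in vitro selection round in triplicate. Selection involved annealing to a biotinylated primer, the partner subunit and triplets, incubation frozen at −7 °C, gel excision of extended constructs, capture on streptavidin beads and RT-PCR. Genotypes were retained after Illumina sequencing of inputs and outputs only with ≥10 input reads and ≥1 read in each output. Fitness is defined as the logarithm of a genotype's enrichment relative to wild-type enrichment, using inverse-variance-weighted averages across replicates, with the logarithm taken to base 2.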

Row | Variant | polymerase ribozyme fitness (log ratio)
1 | G81A C103A | -1.13
2 | C79A C93G C95U U127G C131U G143U | ≤ -4.2
3 | C79A U82A C96A A107U U139A | ≤ -4.2
4 | C79G G88U U134C A142U | ≤ -4.2
5 | G81A C85A | 0.102
6 | G80C C103G G124A A147G | ≤ -4.2
7 | C76G G83U C103U | ≤ -4.2
8 | C76G G94C | ≤ -4.2
9 | G81U G94C U144A | -0.944
10 | U78A U90C | ≤ -4.2
11 | G81C G143C | -2.03
12 | C76U G84U C125U G141U | -3.46
13 | G81U C96U | -1.85
14 | U78A C95G U127C U130G U139G | ≤ -4.2
15 | C79U C85G U101G | ≤ -4.2
16 | G80A U144G | 1.27
17 | G81U C85A C95A | -1.06
18 | G80C C96U | -3.79
19 | G81C C87A A91U C93U C114G A138C G141C | ≤ -4.2
20 | U78G A91C C131G | ≤ -4.2
21 | G81C C103U U134G | -2.49
22 | U82A C96G | -0.244
23 | U78A C93A G94U | -4.16
24 | C76A U135C | -1.96

Row | Variant | polymerase ribozyme fitness (log ratio)
25 | C76G G80C C105U | ≤ -4.2
26 | C79U C87G | -3.61
27 | G81U C96U A150C | -3.33
28 | G80C C95U C118G | ≤ -4.2
29 | G80A A150G | -1.8
30 | G80A G124A | 0.289
31 | G81U G84U A119U G143A | -1.61
32 | U82A A89G C96G G128U | -4.05
33 | G81A C87U G100C G133U G141U | ≤ -4.2
34 | U82A A115U U135A | -2.53
35 | C79G A122C G140A | ≤ -4.2
36 | C79G C125U A142C U148C U151G | ≤ -4.2
37 | C79A G83U U134G | ≤ -4.2
38 | G81A C85A G136A | 0.0509
39 | C79G G124U U139C | ≤ -4.2
40 | C79G A98U C99U G133U | ≤ -4.2
41 | U77A G88A | ≤ -4.2
42 | G80A A119U | -0.405
43 | C76U C96U | 0.0365
44 | C79A U139C A142G U148A | ≤ -4.2
45 | G81C C93U U130G C131U A150U | ≤ -4.2
46 | C79G U148A | ≤ -4.2
47 | C79U C93U | -3.03
48 | C79U C93A | -3.77

Row | Variant | polymerase ribozyme fitness (log ratio)
49 | C79A A91G A110G | ≤ -4.2
50 | G81C G84U G126C | -2.04
51 | G81A A89U G112A G133U C149U | ≤ -4.2
52 | U77G A91G G152A | ≤ -4.2
53 | U82A A107U | -2.79
54 | U77G C103G | ≤ -4.2
55 | U78C G92A | -3.78
56 | U78G C114U C125A C149U | ≤ -4.2
57 | G81C A98U A107G | ≤ -4.2
58 | G81C G141C | -0.0339
59 | G81A C95A | -0.0952
60 | G80U A110G | -4.05
61 | G80U G86U G94C C105A U134A | ≤ -4.2
62 | C76U | 0.0494
63 | C76U C96U A97G C99U C103G | ≤ -4.2
64 | C76G A91U A106G U135A | ≤ -4.2
65 | G81A G152U | -3.09
66 | G81A G152C | -3.29
67 | C79U C85U | -1.94
68 | C76U G84A U101A | -0.872
69 | U77G G117U | ≤ -4.2
70 | C76U G81A C99U | -0.44
71 | C76U C87U G140U U146C | -3.72
72 | G81U G92U U148G G152A | -3.95

Row | Variant | polymerase ribozyme fitness (log ratio)
73 | U82A A120C U130C G143U | -2.44
74 | C76G U127C A150U | ≤ -4.2
75 | C76U G88A C99A C103A | ≤ -4.2
76 | C76U C85A A106C | ≤ -4.2
77 | C76G U78C C93U C103G A137G | ≤ -4.2
78 | C76G C87A U111A | ≤ -4.2
79 | C76G G140U U151G | ≤ -4.2
80 | G80A C93U | -1.6
81 | G81A C118A | -1.82
82 | C76G G84A C118A G141C | ≤ -4.2
83 | C79U A150C | ≤ -4.2
84 | C76U C87G | -3.96
85 | C76U C87A | -3.85
86 | U77A U78C G94U C95G C105U | ≤ -4.2
87 | C76U G86U | -2.16
88 | C79A C103G C131A | ≤ -4.2
89 | C76G C87G U90A A121C A122U | ≤ -4.2
90 | C76U A91U | -4.13
91 | C79U A91C | -4.02
92 | G81A C85U A91U G124C U134A | ≤ -4.2
93 | U82A | -0.0631
94 | C76U G94A C105U | -0.337
95 | G80U C95G C96A | ≤ -4.2
96 | G80A G141A | -0.333

Row | Variant | polymerase ribozyme fitness (log ratio)
97 | U77G G81A A97G C99G U101C G141U A142G | ≤ -4.2
98 | U77G C93U G100U | ≤ -4.2
99 | C76U C85G A147C | -0.612
100 | G80U C125A | -1.04
101 | C76U U82C A89G | -1.3
102 | U77G G92U A115U | ≤ -4.2
103 | G80A G83A A106U C116G U139C G143A | ≤ -4.2
104 | C76U C87G C125G | ≤ -4.2
105 | U77G C93U G117C | ≤ -4.2
106 | G81C C85G C95G | -3.07
107 | U77C G92C | -3.48
108 | C76U C85U C99G | -1.05
109 | G80C G83U C118A G141C | -3.94
110 | G80C G86U | -3.37
111 | U77G C85U C108A A113G | ≤ -4.2
112 | G81A G86A U148A | -3.94
113 | U77C C96A | -2.82
114 | G81A G86A | -1.56
115 | C79U A91U C125A | ≤ -4.2
116 | C79U A97G | -3.02
117 | C79U G88C C93A G136U G143C | ≤ -4.2
118 | C79A C96A | -4.03
119 | C79A C96G | ≤ -4.2
120 | C79U U90A A137G | ≤ -4.2

Row | Variant | polymerase ribozyme fitness (log ratio)
121 | C76G A98G A113U U151G | ≤ -4.2
122 | G80A G81C C95G U145G | -1.72
123 | G80C G94A | ≤ -4.2
124 | C76G C103G U104G U135C | ≤ -4.2
125 | U77G A89U C95A C114U C125G | ≤ -4.2
126 | G80U G81C G84U A89U A97U G100A G126U | ≤ -4.2
127 | C79A G86A | ≤ -4.2
128 | U78G G94U | -3.47
129 | C79U C93A A98U A122U | -4
130 | G81A C118A U148C | -2.6
131 | G81U C85U A115C G136C | -3.36
132 | G80U G84A G126C C132U U145A | -3.25
133 | C79U G81U G92C U127G | ≤ -4.2
134 | G81U C85A U139G | -0.703
135 | C79G G88C G92A C125G | ≤ -4.2
136 | G81A G94C A106C A113U C116A G133A | ≤ -4.2
137 | U77G U78C C85U | ≤ -4.2
138 | C79A A91U A107C G124C U144C | ≤ -4.2
139 | G80C G83A A110U | ≤ -4.2
140 | C79G G84A G100A A110C | ≤ -4.2
141 | C76U G84A A119U U145G | -2.68
142 | G81C C93U U101G | 0.439
143 | C76U A91U G92A | -4.02
144 | G81C G126C | 0.723

Row | Variant | polymerase ribozyme fitness (log ratio)
145 | G81A C131G G140C | -4
146 | G80A G128U | -3.18
147 | C79A G83A | -3.78
148 | U77C C93U G100A A119U A150C | ≤ -4.2
149 | U78C C87U G92A A115U | -2.33
150 | U78G C85G A142G U146C | ≤ -4.2
151 | G81A C105U | 1.52
152 | C76U G84A U104G U151C | ≤ -4.2
153 | U77C G136U C149G | -4.11
154 | U78G C85U G126U | ≤ -4.2
155 | G80A C85A | -0.619
156 | C79A C108U | -4.06
157 | C79A C93A C95U | ≤ -4.2
158 | G81C C132G | -3.75
159 | C76G G88A G136A U139G | ≤ -4.2
160 | C76G A115G A121U | ≤ -4.2
161 | U82A A91G C105U | -2.53
162 | C79G A91G A113U | ≤ -4.2
163 | U77A U90A G133U A142C | ≤ -4.2
164 | G80U C118A A119G | -1.3
165 | U77G U82A A110C G136A A137U A138U | ≤ -4.2
166 | U77C G94C | -3.48
167 | G81A C85A C149U | -0.877
